The supplement of paper PMC10567573

B1: RIPK4 (parent)
chain: AAWQGHLPIVKLLAKQPGVSVNAQ

Variants of: B1
Test: protein stability index of a GFP-peptide fusion (GPS, HEK-293T) (PSI 1-6); higher = more stable
Conditions: c terminus: a fixed tail appended
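Further: lentivirally expressed fusions sorted by FACS into six bins by GFP to DsRed ratio, PSI derived from sequencing read proportions per bin multiplied by bin number.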

Protein stability index of substitutions, site by site:
V21: I 2.43; F 2.23; H 2.45; Y 1.89; M 1.95; K 2.8; S 2.81; N 2.99; R 2.75; E 2.92; L 2.51; C 1.54; A 2.62; D 3.05; P 2.3; G 1.6; Q 2.3; T 2.18
G18: Q 2.53; N 2.07; K 2.46; S 2.54; I 2.01; F 1.51; R 1.69; T 2.54; A 2.67; C 1.72; D 3.03; W 1.36; V 1.92; M 1.61; L 2.07; P 2.28; Y 2.08; H 2.55
K15: W 2.04; T 2.88; C 1.67; D 3.15; I 2.82; A 2.56; N 3.56; F 2.26; M 2.11; G 2.58; P 1.28; Q 1.81; E 2.73; L 1.82; H 2.43; R 2.06; S 2.16
S20: H 1.97; I 2.33; E 2.79; P 2.05; F 1.64; T 2.4; A 2.3; V 1.82; G 2.63; Q 2.35; Y 1.66; W 2.83; D 2.55; R 2.97; K 1.96; M 2.29; L 1.76; C 2.88
P17: A 1.51; S 2.46; Y 3.38; E 3.58; G 2.22; L 2.58; D 2.15; N 2.54; H 1.82; T 1.83; M 2.5; K 2.45; C 1.92; Q 2.37; W 2.91; F 1.53
A23: T 2.4; F 1.41; L 2.01; H 1.79; N 2.92; I 1.72; Q 3.54; D 2.65; P 2.03; C 2.89; M 1.74; R 2.64; K 2.6; E 2.92; S 2.52; G 2.54
Q16: W 1.55; K 2.77; G 2.93; Y 1.97; H 2.97; D 3.25; N 2.95; C 2; M 2.22; P 2.27; E 3.78; T 2.5; I 1.42; A 2.54; R 2.26; V 2.14; S 2.56; L 2
V19: W 1.61; Y 1.75; H 2.65; M 2.3; K 2.73; G 1.85; C 2.66; L 2.04; S 3.22; R 3.3; T 2.46; P 3.08; N 2.61; D 3.35; F 1.7
A14: N 3.07; P 3.28; H 2.13; Y 2.09; Q 2.14; R 2.5; S 2.72; W 1.33; K 3.17; M 2.07; V 1.87; I 1.67; T 2.42
N22: V 3.92; I 2.22; R 1.98; H 2.37; W 1.36; T 2.58; K 2.29; Y 1.39; M 2.61; G 1.98; L 2.06; C 1.89; S 3.35; F 1.55; D 2.48; P 2.19; Q 1.98; A 2.15
